Experimental data reported in doi:10.1101/2021.04.06.21255004, “Hemoglobin Interacts with Endothelial Nitric Oxide Synthase to Regulate Vasodilation in Human Resistance Arteries” (medRxiv, 2021).

Molecular target: T1, purified human alpha globin (human, UniProt P69905 1-142, biotinylated using EZ-Link NHS-PEG4 Biotinylation Kit)
T1 construct: hemoglobin subunit alpha, human; called full-length alpha globin in the discussion; Immobilised through biotin on streptavidin biosensors; also called full-length alpha globin; source: purified
T1 sequence (P69905 whole entry): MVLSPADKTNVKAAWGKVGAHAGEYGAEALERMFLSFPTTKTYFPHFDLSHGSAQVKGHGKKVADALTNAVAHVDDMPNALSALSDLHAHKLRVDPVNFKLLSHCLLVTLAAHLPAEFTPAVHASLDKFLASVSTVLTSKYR
Assay: BLI; Octet RED96; biotinylated alpha globin immobilised on streptavidin biosensors; analyte in solution, 120 s association, 120 s dissociation in assay buffer
Details: both partners purified

Kd: 109 nM
B1: alpha hemoglobin stabilizing protein (natural protein, UniProt Q9NZD4 1-102, looked up)
chain: MALLKANKDLISAGLKEFSVLLNQQVFNDPLVSEEDMVTVVEDWMNFYINYYRQQVTGEPQERDKALQELRQELNTLANPFLAKYRDFLKSHELPSHPPPSS
notes: alpha hemoglobin stabilizing protein; also called AHSP
